Assay results published in US20210317176A1 (Amgen, published 2021).

B1: FGF21 truncation mutant 1-169 (ligand)
chain: HPIPDSSPLLQFGGQVRQRYLYTDDAQQTEAHLEIREDGTVGGAADQSPESLLQLKALKPGVIQILGVKTSRFLCQRPDGALYGSLHFDPEACSFRELLLEDGYNVYQSEAHGLPLHLPGNKSPHRDPAPRGPARFLPLPGLPPAPPEPPGILAPQPPDVGSSDPLSMV
B2: FGF21 truncation mutant 8-181 (ligand)
chain: PLLQFGGQVRQRYLYTDDAQQTEAHLEIREDGTVGGAADQSPESLLQLKALKPGVIQILGVKTSRFLCQRPDGALYGSLHFDPEACSFRELLLEDGYNVYQSEAHGLPLHLPGNKSPHRDPAPRGPARFLPLPGLPPAPPEPPGILAPQPPDVGSSDPLSMVGPSQGRSPSYAS
B3: FGF21 truncation mutant 1-176 (ligand)
chain: HPIPDSSPLLQFGGQVRQRYLYTDDAQQTEAHLEIREDGTVGGAADQSPESLLQLKALKPGVIQILGVKTSRFLCQRPDGALYGSLHFDPEACSFRELLLEDGYNVYQSEAHGLPLHLPGNKSPHRDPAPRGPARFLPLPGLPPAPPEPPGILAPQPPDVGSSDPLSMVGPSQGRS
B4: FGF21 truncation mutant 4-181 (ligand)
chain: PDSSPLLQFGGQVRQRYLYTDDAQQTEAHLEIREDGTVGGAADQSPESLLQLKALKPGVIQILGVKTSRFLCQRPDGALYGSLHFDPEACSFRELLLEDGYNVYQSEAHGLPLHLPGNKSPHRDPAPRGPARFLPLPGLPPAPPEPPGILAPQPPDVGSSDPLSMVGPSQGRSPSYAS
B5: FGF21 truncation mutant 7-181 (ligand)
chain: SPLLQFGGQVRQRYLYTDDAQQTEAHLEIREDGTVGGAADQSPESLLQLKALKPGVIQILGVKTSRFLCQRPDGALYGSLHFDPEACSFRELLLEDGYNVYQSEAHGLPLHLPGNKSPHRDPAPRGPARFLPLPGLPPAPPEPPGILAPQPPDVGSSDPLSMVGPSQGRSPSYAS
B6: FGF21 truncation mutant 5-181 (ligand)
chain: DSSPLLQFGGQVRQRYLYTDDAQQTEAHLEIREDGTVGGAADQSPESLLQLKALKPGVIQILGVKTSRFLCQRPDGALYGSLHFDPEACSFRELLLEDGYNVYQSEAHGLPLHLPGNKSPHRDPAPRGPARFLPLPGLPPAPPEPPGILAPQPPDVGSSDPLSMVGPSQGRSPSYAS
B7: FGF21 truncation mutant 1-173 (ligand)
chain: HPIPDSSPLLQFGGQVRQRYLYTDDAQQTEAHLEIREDGTVGGAADQSPESLLQLKALKPGVIQILGVKTSRFLCQRPDGALYGSLHFDPEACSFRELLLEDGYNVYQSEAHGLPLHLPGNKSPHRDPAPRGPARFLPLPGLPPAPPEPPGILAPQPPDVGSSDPLSMVGPSQ
B8: FGF21 truncation mutant 2-181 (ligand)
chain: PIPDSSPLLQFGGQVRQRYLYTDDAQQTEAHLEIREDGTVGGAADQSPESLLQLKALKPGVIQILGVKTSRFLCQRPDGALYGSLHFDPEACSFRELLLEDGYNVYQSEAHGLPLHLPGNKSPHRDPAPRGPARFLPLPGLPPAPPEPPGILAPQPPDVGSSDPLSMVGPSQGRSPSYAS
B9: FGF21 truncation mutant 1-167 (ligand)
chain: HPIPDSSPLLQFGGQVRQRYLYTDDAQQTEAHLEIREDGTVGGAADQSPESLLQLKALKPGVIQILGVKTSRFLCQRPDGALYGSLHFDPEACSFRELLLEDGYNVYQSEAHGLPLHLPGNKSPHRDPAPRGPARFLPLPGLPPAPPEPPGILAPQPPDVGSSDPLS
B10: FGF21 truncation mutant 3-181 (ligand)
chain: IPDSSPLLQFGGQVRQRYLYTDDAQQTEAHLEIREDGTVGGAADQSPESLLQLKALKPGVIQILGVKTSRFLCQRPDGALYGSLHFDPEACSFRELLLEDGYNVYQSEAHGLPLHLPGNKSPHRDPAPRGPARFLPLPGLPPAPPEPPGILAPQPPDVGSSDPLSMVGPSQGRSPSYAS
B11: FGF21 truncation mutant 1-177 (ligand)
chain: HPIPDSSPLLQFGGQVRQRYLYTDDAQQTEAHLEIREDGTVGGAADQSPESLLQLKALKPGVIQILGVKTSRFLCQRPDGALYGSLHFDPEACSFRELLLEDGYNVYQSEAHGLPLHLPGNKSPHRDPAPRGPARFLPLPGLPPAPPEPPGILAPQPPDVGSSDPLSMVGPSQGRSP
B12: FGF21 truncation mutant 1-165 (ligand)
chain: HPIPDSSPLLQFGGQVRQRYLYTDDAQQTEAHLEIREDGTVGGAADQSPESLLQLKALKPGVIQILGVKTSRFLCQRPDGALYGSLHFDPEACSFRELLLEDGYNVYQSEAHGLPLHLPGNKSPHRDPAPRGPARFLPLPGLPPAPPEPPGILAPQPPDVGSSDP
B13: FGF21 truncation mutant 1-172 (ligand)
chain: HPIPDSSPLLQFGGQVRQRYLYTDDAQQTEAHLEIREDGTVGGAADQSPESLLQLKALKPGVIQILGVKTSRFLCQRPDGALYGSLHFDPEACSFRELLLEDGYNVYQSEAHGLPLHLPGNKSPHRDPAPRGPARFLPLPGLPPAPPEPPGILAPQPPDVGSSDPLSMVGPS
B14: FGF21 truncation mutant 1-171 (ligand)
chain: HPIPDSSPLLQFGGQVRQRYLYTDDAQQTEAHLEIREDGTVGGAADQSPESLLQLKALKPGVIQILGVKTSRFLCQRPDGALYGSLHFDPEACSFRELLLEDGYNVYQSEAHGLPLHLPGNKSPHRDPAPRGPARFLPLPGLPPAPPEPPGILAPQPPDVGSSDPLSMVGP
B15: FGF21 truncation mutant 1-166 (ligand)
chain: HPIPDSSPLLQFGGQVRQRYLYTDDAQQTEAHLEIREDGTVGGAADQSPESLLQLKALKPGVIQILGVKTSRFLCQRPDGALYGSLHFDPEACSFRELLLEDGYNVYQSEAHGLPLHLPGNKSPHRDPAPRGPARFLPLPGLPPAPPEPPGILAPQPPDVGSSDPL
B16: FGF21 truncation mutant 1-180 (ligand)
chain: HPIPDSSPLLQFGGQVRQRYLYTDDAQQTEAHLEIREDGTVGGAADQSPESLLQLKALKPGVIQILGVKTSRFLCQRPDGALYGSLHFDPEACSFRELLLEDGYNVYQSEAHGLPLHLPGNKSPHRDPAPRGPARFLPLPGLPPAPPEPPGILAPQPPDVGSSDPLSMVGPSQGRSPSYA
B17: FGF21 truncation mutant 1-178 (ligand)
chain: HPIPDSSPLLQFGGQVRQRYLYTDDAQQTEAHLEIREDGTVGGAADQSPESLLQLKALKPGVIQILGVKTSRFLCQRPDGALYGSLHFDPEACSFRELLLEDGYNVYQSEAHGLPLHLPGNKSPHRDPAPRGPARFLPLPGLPPAPPEPPGILAPQPPDVGSSDPLSMVGPSQGRSPS
B18: FGF21 truncation mutant 9-181 (ligand)
chain: LLQFGGQVRQRYLYTDDAQQTEAHLEIREDGTVGGAADQSPESLLQLKALKPGVIQILGVKTSRFLCQRPDGALYGSLHFDPEACSFRELLLEDGYNVYQSEAHGLPLHLPGNKSPHRDPAPRGPARFLPLPGLPPAPPEPPGILAPQPPDVGSSDPLSMVGPSQGRSPSYAS
B19: FGF21 truncation mutant 1-174 (ligand)
chain: HPIPDSSPLLQFGGQVRQRYLYTDDAQQTEAHLEIREDGTVGGAADQSPESLLQLKALKPGVIQILGVKTSRFLCQRPDGALYGSLHFDPEACSFRELLLEDGYNVYQSEAHGLPLHLPGNKSPHRDPAPRGPARFLPLPGLPPAPPEPPGILAPQPPDVGSSDPLSMVGPSQG
B20: human FGF21 (wild-type mature FGF21 polypeptide) (ligand)
chain: HPIPDSSPLLQFGGQVRQRYLYTDDAQQTEAHLEIREDGTVGGAADQSPESLLQLKALKPGVIQILGVKTSRFLCQRPDGALYGSLHFDPEACSFRELLLEDGYNVYQSEAHGLPLHLPGNKSPHRDPAPRGPARFLPLPGLPPAPPEPPGILAPQPPDVGSSDPLSMVGPSQGRSPSYAS

Molecular target: beta-klotho
Assay: cell-based or functional assay

With B1 as the binder, how does the “Efficacy (ELK-luciferase assay, relative to wild-type FGF21)” value read?
The value was 84.9%.

For B2, which “Efficacy (ELK-luciferase assay, relative to wild-type FGF21)” value is on record?
Its value is 24.9%.

For B3, which “Efficacy (ELK-luciferase assay, relative to wild-type FGF21)” value is on record?
The value was 105%.

Which “Efficacy (ELK-luciferase assay, relative to wild-type FGF21)” value does the source give for B4 here?
Its value is 117%.

How did the “Efficacy (ELK-luciferase assay, relative to wild-type FGF21)” value turn out when B5 was run?
Its value is 74.2%.

Which “Efficacy (ELK-luciferase assay, relative to wild-type FGF21)” value does the source give for B6 here?
The value was 120%.

For B7, which “Efficacy (ELK-luciferase assay, relative to wild-type FGF21)” value is on record?
Its value is 96.1%.

With B8 as the binder, how does the “Efficacy (ELK-luciferase assay, relative to wild-type FGF21)” value read?
The value was 112%.

B9 was tested. Which “Efficacy (ELK-luciferase assay, relative to wild-type FGF21)” value did it give?
The value was ~20%.

With B10 as the binder, how does the “Efficacy (ELK-luciferase assay, relative to wild-type FGF21)” value read?
The value was 130%.

Which “Efficacy (ELK-luciferase assay, relative to wild-type FGF21)” value does the source give for B11 here?
The value was 112%.

Which “Efficacy (ELK-luciferase assay, relative to wild-type FGF21)” value does the source give for B12 here?
Its value is ~10%.

How did the “Efficacy (ELK-luciferase assay, relative to wild-type FGF21)” value turn out when B13 was run?
Its value is 97.5%.

With B14 as the binder, how does the “Efficacy (ELK-luciferase assay, relative to wild-type FGF21)” value read?
The value was 113%.

Which “Efficacy (ELK-luciferase assay, relative to wild-type FGF21)” value does the source give for B15 here?
The value was ~20%.

With B16 as the binder, how does the “Efficacy (ELK-luciferase assay, relative to wild-type FGF21)” value read?
Its value is 93.2%.

For B17, which “Efficacy (ELK-luciferase assay, relative to wild-type FGF21)” value is on record?
The value was 95%.

Which “Efficacy (ELK-luciferase assay, relative to wild-type FGF21)” value does the source give for B18 here?
Its value is 12.5%.

How did the “Efficacy (ELK-luciferase assay, relative to wild-type FGF21)” value turn out when B19 was run?
The value was 105%.

Molecular target: beta-klotho
Assay: cell-based or functional assay
Remark: another data set of the same source

For B20, which “EC50 (ELK-luciferase assay)” value is on record?
The value was 400 pM.
